Laboratory results taken from the supplement of paper PMC11246515.
± gives the standard deviation of the averaged measurements.

Test: total protein half-life in vivo (active degradation + dilution); higher = more stable protein
[1] = E. coli NCM3722 delta-clpP, growth: N-lim chemostat, doubling time 6 h
[2] = E. coli NCM3722 delta-hslV, growth: N-lim chemostat, doubling time 6 h
[3] = E. coli NCM3722 delta-lon, growth: N-lim chemostat, doubling time 6 h
[4] = E. coli NCM3722 delta-smpB, growth: N-lim chemostat, doubling time 6 h
[5] = wild type E. coli NCM3722, growth: C-lim chemostat, doubling time 3 h
[6] = wild type E. coli NCM3722, growth: C-lim chemostat, doubling time 6 h
[7] = wild type E. coli NCM3722, growth: C-lim chemostat, doubling time 12 h
[8] = wild type E. coli NCM3722, growth: N-lim chemostat, doubling time 6 h
[9] = wild type E. coli NCM3722, growth: N-lim chemostat, doubling time 12 h
[10] = wild type E. coli NCM3722, growth: P-lim chemostat, doubling time 6 h
[11] = wild type E. coli NCM3722, growth: P-lim chemostat, doubling time 12 h
[12] = E. coli NCM3722 delta-clpP delta-lon delta-hslV, growth: N-lim chemostat, doubling time 6 h

MADWVTGKVTKVQNWTDALFSLTVHAPVLPFTAGQFTKLGLEIDGERVQRAYSYVNSPDNPDLEFYLVTVPDGKLSPRLAALKPGDEVQVVSEAAGFFVLDEVPHCETLWMLATGTAIGPYLSILQLGKDLDRFKNLVLVHAARYAADLSYLPLMQELEKRYEGKLRIQTVVSRETAAGSLTGRIPALIESGELESTIGLPMNKETSHVMLCGNPQMVRDTQQLLKETRQMTKHLRRRPGHMTAEHYW
total protein half-life in vivo [1]: 3.93 ± 0.36 h
total protein half-life in vivo [2]: 4.14 ± 0.33 h
total protein half-life in vivo [3]: 4.64 ± 0.33 h
total protein half-life in vivo [4]: 3.83 ± 0.12 h
total protein half-life in vivo [5]: 2.888 ± 0.0031 h
total protein half-life in vivo [6]: 5.62 ± 0.29 h
total protein half-life in vivo [7]: 10.8 ± 0.21 h
total protein half-life in vivo [8]: 4.29 ± 0.31 h
total protein half-life in vivo [9]: 6.73 ± 0.41 h
total protein half-life in vivo [10]: 5.609 ± 0.031 h
total protein half-life in vivo [11]: 11.3 ± 0.53 h

MSIVVKNNIHWVGQRDWEVRDFHGTEYKTLRGSSYNSYLIREEKNVLIDTVDHKFSREFVQNLRNEIDLADIDYIVINHAEEDHAGALTELMAQIPDTPIYCTANAIDSINGHHHHPEWNFNVVKTGDTLDIGNGKQLIFVETPMLHWPDSMMTYLTGDAVLFSNDAFGQHYCDEHLFNDEVDQTELFEQCQRYYANILTPFSRLVTPKITEILGFNLPVDMIATSHGVVWRDNPTQIVELYLKWAADYQEDRITIFYDTMSNNTRMMADAIAQGIAETDPRVAVKIFNVARSDKNEILTNVFRSKGVLVGTSTMNNVMMPKIAGLVEEMTGLRFRNKRASAFGSHGWSGGAVDRLSTRLQDAGFEMSLSLKAKWRPDQDALKLCREHGREIARQWALAPLPQSTVNTVVKEETSATTTADLGPRMQCSVCQWIYDPAKGEPMQDVAPGTPWSEVPDNFLCPECSLGKDVFEELASEAK
total protein half-life in vivo [12]: 5.32 ± 0.78 h
total protein half-life in vivo [1]: 3.24 h
total protein half-life in vivo [4]: 1.57 h
total protein half-life in vivo [8]: 2.75 h
total protein half-life in vivo [11]: 10.1 ± 7.1 h

MGKLTGKTALITGALQGIGEGIARTFARHGANLILLDISPEIEKLADELCGRGHRCTAVVADVRDPASVAAAIKRAKEKEGRIDILVNNAGVCRLGSFLDMSDDDRDFHIDINIKGVWNVTKAVLPEMIARKDGRIVMMSSVTGDMVADPGETAYALTKAAIVGLTKSLAVEYAQSGIRVNAICPGYVRTPMAESIARQSNPEDPESVLTEMAKAIPMRRLADPLEVGELAAFLASDESSYLTGTQNVIDGGSTLPETVSVGI
total protein half-life in vivo [12]: 5.394 ± 0.017 h
total protein half-life in vivo [1]: 4.09 ± 0.14 h
total protein half-life in vivo [4]: 4.12 ± 0.29 h
total protein half-life in vivo [5]: 2.91 ± 0.32 h
total protein half-life in vivo [6]: 6.12 ± 0.41 h
total protein half-life in vivo [7]: 10.2 ± 1.1 h
total protein half-life in vivo [8]: 5.35 h
total protein half-life in vivo [9]: 6.28 h
total protein half-life in vivo [10]: 6.25 ± 0.41 h
total protein half-life in vivo [11]: 14.8 ± 0.61 h

MYTSGYAHRSSSFSSAASKIARVSTENTTAGLISEVVYREDQPMMTQLLLLPLLQQLGQQSRWQLWLTPQQKLSREWVQASGLPLTKVMQISQLSPCHTVESMVRALRTGNYSVVIGWLADDLTEEEHAELVDAANEGNAMGFIMRPVSASSHATRQLSGLKIHSNLYH [P0AFZ5]
total protein half-life in vivo [12]: 5.07 ± 0.91 h
total protein half-life in vivo [3]: 0.671 ± 0.059 h

MGEISITKLLVVAALVVLLFGTKKLRTLGGDLGAAIKGFKKAMNDDDAAAKKGADVDLQAEKLSHKE [P0A843]
total protein half-life in vivo [12]: 1.78 ± 1 h
total protein half-life in vivo [1]: 1.57 ± 0.29 h
total protein half-life in vivo [2]: 1.48 ± 0.19 h
total protein half-life in vivo [3]: 1.01 ± 0.26 h
total protein half-life in vivo [4]: 1.05 ± 0.24 h
total protein half-life in vivo [5]: 0.833 ± 0.13 h
total protein half-life in vivo [6]: 0.983 h
total protein half-life in vivo [7]: 1.3 ± 0.34 h
total protein half-life in vivo [8]: 1.79 h
total protein half-life in vivo [9]: 2.14 ± 0.98 h
total protein half-life in vivo [10]: 0.79 h
total protein half-life in vivo [11]: 1.59 ± 0.77 h

MEGSDFLLAGVLFLFAAVAAVPLASRLGIGAVLGYLLAGIAIGPWGLGFISDVDEILHFSELGVVFLMFIIGLELNPSKLWQLRRSIFGVGAAQVLLSAALLAGLLMLTDFAWQAAVVGGIGLAMSSTAMALQLMREKGMNRSESGQLGFSVLLFQDLAVIPALALVPLLAGSADEHFDWMKVGMKVLAFVGMLIGGRYLLRPVFRFIAASGVREVFTAATLLLVLGSALFMDALGLSMALGTFIAGVLLAESEYRHELETAIDPFKGLLLGLFFISVGMSLNLGVLYTHLLWVVISVVVLVAVKILVLYLLARLYGVRSSERMQFAGVLSQGGEFAFVLFSTASSQRLFQGDQMALLLVTVTLSMMTTPLLMKLVDKWLSRQFNGPEEEDEKPWVNDDKPQVIVVGFGRFGQVIGRLLMANKMRITVLERDISAVNLMRKYGYKVYYGDATQVDLLRSAGAEAAESIVITCNEPEDTMKLVEICQQHFPHLHILARARGRVEAHELLQAGVTQFSRETFSSALELGRKTLVTLGMHPHQAQRAQLHFRRLDMRMLRELIPMHADTVQISRAREARRELEEIFQREMQQERRQLDGWDEFE
total protein half-life in vivo [12]: 7.22 ± 0.56 h
total protein half-life in vivo [3]: 6.81 ± 1.1 h
total protein half-life in vivo [4]: 6.39 ± 1.5 h
total protein half-life in vivo [6]: 5.87 ± 0.17 h
total protein half-life in vivo [8]: 5.996 ± 0.021 h
total protein half-life in vivo [9]: 13.6 ± 2 h
total protein half-life in vivo [10]: 7.09 ± 1.1 h

MTKKKAHKPGSATIALNKRARHEYFIEEEFEAGLALQGWEVKSLRAGKANISDSYVLLRDGEAFLFGANITPMAVASTHVVCDPTRTRKLLLNQRELDSLYGRVNREGYTVVALSLYWKNAWCKVKIGVAKGKKQHDKRSDIKEREWQVDKARIMKNAHR [P0A832]
total protein half-life in vivo [12]: 6.34 ± 0.4 h
total protein half-life in vivo [1]: 6.17 ± 1.2 h
total protein half-life in vivo [2]: 6.55 ± 0.43 h
total protein half-life in vivo [5]: 3.07 ± 0.46 h
total protein half-life in vivo [7]: 13.1 ± 0.6 h
total protein half-life in vivo [8]: 5.94 ± 0.25 h
total protein half-life in vivo [10]: 5.73 ± 0.2 h
total protein half-life in vivo [11]: 11.7 ± 0.31 h

MGRKWANIVAKKTAKDGATSKIYAKFGVEIYAAAKQGEPDPELNTSLKFVIERAKQAQVPKHVIDKAIDKAKGGGDETFVQGRYEGFGPNGSMIIAETLTSNVNRTIANVRTIFNKKGGNIGAAGSVSYMFDNTGVIVFKGTDPDHIFEILLEAEVDVRDVTEEEGNIVIYTEPTDLHKGIAALKAAGITEFSTTELEMIAQSEVELSPEDLEIFEGLVDALEDDDDVQKVYHNVANL [P0A8A2]
total protein half-life in vivo [12]: 5.2 ± 0.11 h
total protein half-life in vivo [1]: 4.981 ± 0.0067 h
total protein half-life in vivo [2]: 4.11 ± 0.057 h
total protein half-life in vivo [3]: 5.18 ± 1 h
total protein half-life in vivo [4]: 4.17 ± 0.56 h
total protein half-life in vivo [5]: 2.95 ± 0.35 h
total protein half-life in vivo [6]: 5.79 ± 1.9 h
total protein half-life in vivo [7]: 9.45 ± 0.47 h
total protein half-life in vivo [8]: 4.55 ± 0.5 h
total protein half-life in vivo [9]: 7.06 ± 0.55 h
total protein half-life in vivo [10]: 5.02 ± 0.079 h
total protein half-life in vivo [11]: 9.37 ± 0.61 h
